From publication PMC11514443 (Structure (London, England : 1993), 2019)

Biological target: MORC3-CW E431A mutant (human) (UniProt Q14149)
Assay: other fluorescence titration

MORC3-CW E431A mutant (human), sequence (Q14149 401-455 E431A): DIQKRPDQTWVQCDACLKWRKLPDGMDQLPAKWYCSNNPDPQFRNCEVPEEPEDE

In the case of “NS1 peptide trimethylated at K229 (residues 222-230 of NS1)”, the Kd is reported as 57 µM.
